How the values were obtained:
Assay in all cases: cell_activity
[1] = test system: FucT1_T02 TALEN left monomer (synthetic); conditions: for activity: N. benthamiana protoplasts
[2] = test system: FucT2_T02 TALEN left monomer (synthetic); conditions: for activity: N. benthamiana protoplasts
[3] = test system: FucT1_T01 TALEN right monomer (synthetic); conditions: yeast assay as pair, full target SEQ 66 (right half printed differently from Table 1), 37 C; 0.6 at 30 C
[4] = test system: FucT2_T01 TALEN right monomer (synthetic); conditions: yeast assay as pair, full target SEQ 67, 37 C; 0.8 at 30 C
[5] = test system: XylT_T04 TALEN right monomer (synthetic)
[6] = test system: XylT_T04 TALEN left monomer (synthetic)
[7] = test system: FucT1_T02/FucT2_T02 TALEN right monomer (synthetic)
[8] = test system: FucT_T04 TALEN left monomer (synthetic); conditions: yeast assay as pair, targets SEQ 70 and 71 (same value), 37 C; 0.5 at 30 C
[9] = test system: FucT2_T01 TALEN left monomer (synthetic); conditions: yeast assay as pair, full target SEQ 67, 37 C; 0.8 at 30 C
[10] = test system: FucT_T04 TALEN right monomer (synthetic); conditions: yeast assay as pair, targets SEQ 70 and 71 (same value), 37 C; 0.5 at 30 C
[11] = test system: FucT1_T01 TALEN left monomer (synthetic); conditions: yeast assay as pair, full target SEQ 66 (right half printed with CTAAGC there vs AATAAGC in Table 1), 37 C; 0.6 at 30 C
[12] = test system: XylT_T03 TALEN left monomer (synthetic)
[13] = test system: XylT_T03 TALEN right monomer (synthetic)
[14] = N. benthamiana protoplasts, pair, XylT1 locus, XylT2 63.9%
[15] = yeast assay as pair, full target SEQ 65, 37 C, 0.9 at 30 C

## TTCAAACGCACCCGATA (double strand) [FucT2_T02 left half-site]
[1]; pair FucT1_T02, FucT2 locus (1-bp mismatch), control 0.14%
  activity: 24.7 % NHEJ
[2]; pair FucT2_T02, FucT2 locus, control 0.14%
  activity: 45 % NHEJ
[2]; yeast assay as pair, full target SEQ 69, 37 C, 0.7 at 30 C
  activity (relative to I-SceI): 0.9

## AATAAGCAATGGCGCAA (double strand) [FucT1_T01 right half-site (top strand as printed)]
[3]
  activity (relative to I-SceI): 0.8

## GATAAACAATGGCGCAA (double strand) [FucT2_T01 right half-site (top strand as printed)]
[4]
  activity (relative to I-SceI): 0.9

## CTCTACTTCTCTTCCCA (double strand) [XylT_T04 right half-site (top strand as printed)]
[5]; [14]
  activity: 73.8 % NHEJ
[5]; [15]
  activity (relative to I-SceI): 0.9

## TTCAAACGCACCCAATA (double strand) [FucT1_T02 left half-site]
[1]; pair FucT1_T02, FucT1 locus, control 0.79%
  activity: 39.2 % NHEJ
[1]; yeast assay as pair, full target SEQ 68, 37 C, 0.7 at 30 C
  activity (relative to I-SceI): 0.9
[2]; pair FucT2_T02, FucT1 locus (1-bp mismatch), control 0.79%
  activity: 46.5 % NHEJ

## TCTCTTCGCTCTCAACT (double strand) [XylT_T04 left half-site]
[6]; [14]
  activity: 73.8 % NHEJ
[6]; [15]
  activity (relative to I-SceI): 0.9

## CTCTGTTCGTTGCCCTA (double strand) [FucT_T02 right half-site (top strand as printed)]
[7]; N. benthamiana protoplasts, pair FucT1_T02 at FucT1, 24.7% at FucT2, with FucT2_T02 left monomer 46.5/45.0%
  activity: 39.2 % NHEJ
[7]; yeast assay as pair with FucT1 or FucT2 left monomer, targets SEQ 68 and 69, 37 C, 0.7 at 30 C
  activity (relative to I-SceI): 0.9

## TTGCCTCTGTTCGTTGC (double strand) [FucT_T04 left half-site]
[8]
  activity (relative to I-SceI): 0.6

## TGAGATCGTCGTCAAAT (double strand) [FucT2_T01 left half-site]
[9]
  activity (relative to I-SceI): 0.9

## TTTCTGGTTCGACTCGA (double strand) [FucT_T04 right half-site (top strand as printed)]
[10]
  activity (relative to I-SceI): 0.6

## TGAGATCGGCGTCAAAT (double strand) [FucT1_T01 left half-site]
[11]
  activity (relative to I-SceI): 0.8

## TTCTTGTTTCTCTCTTC (double strand) [XylT_T03 left half-site]
[12]; N. benthamiana protoplasts, pair, XylT1 locus, XylT2 28.2%, controls 0.36/0.06%
  activity: 34.4 % NHEJ
[12]; yeast beta-galactosidase assay as pair, full target SEQ 64, 37 C, 0.7 at 30 C
  activity (relative to I-SceI): 0.9

## ATCACTCTCTATCTCTA (double strand) [XylT_T03 right half-site (top strand as printed)]
[13]; N. benthamiana protoplasts, pair, XylT1 locus, XylT2 28.2%
  activity: 34.4 % NHEJ
[13]; yeast assay as pair, full target SEQ 64, 37 C, 0.7 at 30 C
  activity (relative to I-SceI): 0.9

From US20140120578
